Experimental data as given in patent publication US20220340894A1 (CDR LIFE, published 2022).
One block for each binder: values may come before it.

Assays:
[1] = target: T1, HLA-A2/MAGE-A4 complex (HLA-A*02:01 extracellular domain, human β2m, MAGE-A4 peptide 230-239) (human, UniProt P04439 25-299 at identity 0.94); P61769 21-119); assay: direct ELISA, plate coated with HLA-A2/MAGE-A4 complex, OD450 nm (second panel, 'Binding to HLA-A2/MAGE-A4', M0710-M0766)
T1 construct: also called MAGE-A4/HLA-A2 complex; pMHC
Method: (§1) All available hits were evaluated for their ability to bind MAGE-A4/HLA-A2 complex and a control peptide/HLA-A2 complex in a direct binding ELISA assay. […] Briefly, 96 well ELISA plates were coated with purified human MAGE-A4/HLA-A2 complex or control HLA-A2 complex. Serial dilutions of antibody molecules were added to the plate and detected by an anti-kappa light chain-HRP (Invitrogen) followed by goat anti-rabbit IgG(H+L) HRP (Southern Biotech). […] All tested molecules are rabbit-derived antibodies that are representative of antibodies identified from the nucleic acid libraries described herein.

[2] = target: T2, control peptide 1 (Ctrl.1, …) displayed by HLA-A2 on T2 cells (human); assay: flow cytometry on T2 cells pulsed with control peptide 1; relative MFI = binding over peptide loading (BB7.2)
T2 construct: whole, on cells
Method: (§2) TAP-deficient T2 cells were pulsed with HLA-A2-restricted peptides (MAGE-A4 or control peptides) and incubated with MAGE-A4 binders followed by fluorophore-labeled specific detection antibodies and analysis by flow cytometry.
(§3) Briefly, T-B hybrid T2 cells were incubated with serum-free RPMI1640 medium containing MAGE-A4 or control peptides. […] Peptide loading efficiency was verified by using the ratio between median fluorescent intensity (MFI) of HLA-A2-binding antibody BB7.2 on peptide loaded T2 cells and MFI of unloaded T2 cells (>1). T2 cells were incubated with each of the specific antibodies followed by fluorophore-labeled detection antibodies (anti-kappa light chain or anti-Flag). The cells were fixed and fluorescence was measured by flow cytometry.

[3] = target: T3, control peptide 2 (Ctrl.2, …) displayed by HLA-A2 on T2 cells (human); assay: flow cytometry on T2 cells pulsed with control peptide 2; relative MFI = binding over peptide loading (BB7.2)
T3 construct: whole, on cells
Method: as §2, §3

[4] = target: T1, HLA-A2/MAGE-A4 complex (HLA-A*02:01 …); assay: direct ELISA, plate coated with HLA-A2/MAGE-A4 complex, OD450 nm (top panel, 'Binding to HLA-A2/MAGE-A4', M0700-M0709)
Method: as §1

[5] = target: T4, MAGE-A4 peptide-HLA-A2 complex presented on cells (human); assay: flow cytometry on T2 cells pulsed with MAGE-A4 peptide; relative MFI = binding over peptide loading (BB7.2)
T4 construct: whole, on cells; Used both for T2 cells pulsed with the peptide and for tumour cell lines that present it themselves; also called MAGE-A4 positive/HLA-A2 positive cells
Method: as §2, §3

[6] = target: T2, control peptide 1 (Ctrl.1, …) displayed …; assay: flow cytometry on T2 cells pulsed with control peptide 1; relative MFI = binding over peptide loading (BB7.2); antibody concentration not given
Method: as §2, §3

[7] = target: T3, control peptide 2 (Ctrl.2, …) displayed …; assay: flow cytometry on T2 cells pulsed with control peptide 2; relative MFI = binding over peptide loading (BB7.2); antibody concentration not given
Method: as §2, §3

[8] = target: T5, control peptide 3 (Ctrl.3, …) displayed by HLA-A2 on T2 cells (human); assay: flow cytometry on T2 cells pulsed with control peptide 3; relative MFI = binding over peptide loading (BB7.2); antibody concentration not given
T5 construct: whole, on cells
Method: as §2, §3

B1: M0766 (Fab, V domains shown)
VH: PEQLEESGGGLVTPGGVLTLTCTASGFSFSSYGVNWVRQAPGKGLEWIGFIFGDGTTYYANWAKGRFTISKTSTTVDLKMTSPTTEDTATYFCARDGYGGYDYIINLWGQGTLVTVSS
VL: AQVLTQTPASVSAAVGGTVSISCQSSQSVVNNNWLAWYQQKPGQPPKLLIYKASTLESGVPSRFKGSGSGTQFTLTISGVQADDAATYYCLGEFSCSSADCHAFGGGTELEILR
binding result [1]: binds

B2: M0709 (Fab, V domains shown)
VH: QSVKESGGRLVTPGTPLTLTCTVSGFSLSNYAMSWVRQAPGKGLEYIGIVSSGGTTYYASWAKGRFTISKTSTTVDLKITSPTTEDTATYFCAKDLYYGPTTYSAFNLWGQGTLVTVSS
VL: SELVLTQPQSVSGSLGQTVSISCKRARDNIEDYYVHWYQQHPGKTPTIVIHKDDQRPSGVPDRFSGSIDSTSNSASLTITGLLAEDEADYFCQSFDNDASPVFGGGTQLTVTG
binding result [2]: binds | binding result [3]: binds | binding result [4]: binds | binding result [5]: binds

B4: M0702 (Fab, V domains shown)
VH: QEQLEESGGGLVTPGTPLTLTCTASGFSLSSYAMIWVRQAPGKGLEWIGTINDGGTAFYANWVKGRFTISRTSTTVDLKMTSPTTEDTATYFCARAYGSNGDVYWGYVNLWGQGTLVTVSS
VL: ELVMTQTPASVSEPVGGTVTIKCQASQSIGSNLAWYQQKPGQPPKLLIYAAANLASGVSSRFKGSRSGTEYTLTISGVQAADAATYYCQQGYSSSNVANVFGGGTELEILR
EC50 (read off the curve) [4]: ~0.6 nM

Further lines, results first:

binding result [6]: no binding | binding result [5]: binds | binding result [7]: no binding | binding result [1]: binds | binding result [8]: no binding
B3: M0763 (Fab, V domains shown)
VH: B2 VH
VL: SELVLTQPASVQVNLGQTVSLTCTADTLSRSYASWYQLKPGQAPVLLIYRDTSRPSGVPDRFSGSSSGNTATLTISGAQAGDEGDYVCATSDGSGSNFQLFGGGTQLTVTG

binding result [4]: binds
B5: M0707 (Fab, V domains shown)
VH: QQQLEESGGGLVTPGTPLTLTCTVSGIDLSSYAMGWVRQAPGKGLEWIGTINDGGSAFYASWVKGRFTISRTSTTVDLKITSPTAEDTATYFCAKTYGTNGDVYWGYFNLWGQGTLVTVSS
VL: ELVMTQTPASVSEPVGGTVTIKCQASQSIGSNLAWYQQKPGQPPKLLIYYESILASGVPSRFSGSGSGTEYTLTISGAQADDAATYYCQQGYSSSNILNAFGGGTEVVVKR

binding result [4]: binds
B6: M0705 (Fab, V domains shown)
VH: QQQLVESGGRLVTPGTPLTLTCTASGIDLNSNAMSWVRQGPGKGLEWIGDIWSGGYTDYASWAKGRFTISKTSTTVDLKMTSLTAADTATYFCARDRLAGDGVVDYDLWGQGTLVTVSS
VL: ELDMTQTPASVEVAVGGTVTIKCQASQNIYSNLAWYQQKPGQRPKLLIYGASTLASGVPSRFKGSGSGTEYTLTINGVQAADAATYYCQQGFSSSNVDNVFGGGTEVVVKR
